For 16 sequences, protein stability index results are on record in the supplement of paper PMC10724198.

± gives the standard deviation of the averaged measurements.

The subject of data set [1] is Saccharomyces cerevisiae. The data set is described as follows: protein stability index of tFT-peptide fusion (C-terminal peptide) (PSI (0-1 scale)); higher = more stable (slower turnover). To be noted: genetic background: wild type; temperature: 30 C.
Data set [2] has as its system Saccharomyces cerevisiae. The description is as above. How it is done: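 MPS profiling in S. cerevisiae of the tFT-X12 degron library: putative degron peptides plus stable controls, 12 aa, fused to the C-terminus of a sfGFP-mCherry timer. Cells are FACS-sorted into 8 mCherry/sfGFP bins and deep-sequenced. PSI runs from 0 (unstable) to 1 (stable). Backgrounds are wild type, das1Δ and doa10Δ at 30 °C, and wild type, das1Δ, cdc34-1 and cdc53-1 at 37 °C; 2-3 technical replicates each.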

The mark [3] stands for this setting: genetic background: cdc34-1, temperature: 37 C.
[4] abbreviates: genetic background: cdc53-1, temperature: 37 C.
The mark [5] stands for this setting: genetic background: das1 deletion, temperature: 30 C.
[6] abbreviates: genetic background: das1 deletion, temperature: 37 C.
Setting [7] is: genetic background: doa10 deletion, temperature: 30 C.
Setting [8] is: genetic background: wild type, temperature: 30 C.
The mark [9] stands for this setting: genetic background: wild type, temperature: 37 C.
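Note: PSI is a weighted mean of sequencing reads over stability bins, variants kept only with over 10 reads, mCherry proximal and sfGFP distal, peptide attached via GGGS linker.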

CLFSPFCFILFC: the protein stability index in data set [1] is 0.12318 ± 9.1e-05; in data set [2] (setting [3]) it was 0.0319 ± 0.013; in data set [2] (setting [4]) it was 0.0391 ± 0.0022; in data set [2] (setting [5]) it was 0.0898 ± 0.0084; in data set [2] (setting [6]), 0.11 ± 0.012; in data set [2] (setting [7]), 0.285 ± 0.021. Also, the results for the protein stability index in data set [2] (setting [8]) and in data set [2] (setting [9]) were 0.074 ± 0.011 and 0.0686 ± 0.019, respectively.

Consider CLTGWFGIFSAP, for which the protein stability index in data set [1] stood at 0.7344 ± 0.0021; in data set [2] (setting [3]) it was 0.708 ± 0.019; in data set [2] (setting [4]), 0.755 ± 0.025; in data set [2] (setting [5]), 0.678 ± 0.016; in data set [2] (setting [6]), 0.763 ± 0.02; in data set [2] (setting [7]), 0.695 ± 0.015. Also, the protein stability index came out at 0.688 ± 0.027 in data set [2] (setting [8]) and 0.737 ± 0.015 in data set [2] (setting [9]).

For CMIACYALLRLL, the protein stability index in data set [1] turned out to be 0.11 ± 0.039; in data set [2] (setting [3]), 0.176 ± 0.023; in data set [2] (setting [4]) it was 0.256 ± 0.011; in data set [2] (setting [5]), 0.346 ± 0.036; in data set [2] (setting [6]), 0.477 ± 0.0079; in data set [2] (setting [7]) it was 0.0799 ± 0.021. The results for the protein stability index in data set [2] (setting [8]) and in data set [2] (setting [9]) were 0.0777 ± 0.016 and 0.0702 ± 0.0087, respectively.

CPALYMPPPVLV: the protein stability index in data set [1] came to 0.2594 ± 0.0017; in data set [2] (setting [3]), 0.114 ± 0.036; in data set [2] (setting [4]) it was 0.13 ± 0.012; in data set [2] (setting [5]), 0.191 ± 0.026; in data set [2] (setting [6]), 0.238 ± 0.01; in data set [2] (setting [7]), 0.14 ± 0.03. Moreover, the protein stability index in data set [2] (setting [8]) came out at 0.182 ± 0.015; in data set [2] (setting [9]), 0.215 ± 0.0041.

As for CPPPPPSLLLLC, the protein stability index in data set [1] worked out at 0.223 ± 0.0038; in data set [2] (setting [3]), 0.531 ± 0.025; in data set [2] (setting [4]), 0.6762 ± 0.0035; in data set [2] (setting [5]), 0.591 ± 0.012; in data set [2] (setting [6]), 0.666 ± 0.011; in data set [2] (setting [7]) it was 0.168 ± 0.0086. Further, the protein stability index in data set [2] (setting [8]) was 0.19 ± 0.013; in data set [2] (setting [9]), 0.29753 ± 0.00015.

CRLCVFGVWFCG: the protein stability index in data set [1] was 0.499 ± 0.033; in data set [2] (setting [3]) it was 0.532 ± 0.033; in data set [2] (setting [4]) it was 0.535 ± 0.012; in data set [2] (setting [5]), 0.443 ± 0.018; in data set [2] (setting [6]), 0.5751 ± 0.0034; in data set [2] (setting [7]), 0.448 ± 0.037. For the same sequence, the protein stability index in data set [2] (setting [8]) was 0.412 ± 0.022; in data set [2] (setting [9]), 0.5405 ± 0.0014.

As to CSPAFRPIVFVL, the protein stability index was determined as 0.225 ± 0.013 in data set [1]; 0.2771 ± 0.00097 in data set [2] (setting [3]); 0.2732 ± 0.00067 in data set [2] (setting [4]); 0.301 ± 0.026 in data set [2] (setting [5]); 0.407 ± 0.013 in data set [2] (setting [6]); 0.1802 ± 0.00032 in data set [2] (setting [7]). The protein stability index came out at 0.163 ± 0.016 in data set [2] (setting [8]) and 0.176 ± 0.0079 in data set [2] (setting [9]).

Turning to CSVPLGVFAIVV, the protein stability index amounted to 0.48 ± 0.019 in data set [1]; 0.463 ± 0.0057 in data set [2] (setting [3]); 0.471 ± 0.032 in data set [2] (setting [4]); 0.382 ± 0.028 in data set [2] (setting [5]); 0.514 ± 0.0019 in data set [2] (setting [6]); 0.347 ± 0.0035 in data set [2] (setting [7]). The protein stability index was 0.365 ± 0.038 in data set [2] (setting [8]) and 0.4894 ± 0.0029 in data set [2] (setting [9]).

As to CSYPTLSMYSTT, the protein stability index in data set [1] was determined as 0.74 ± 0.072; in data set [2] (setting [3]), 0.673 ± 0.068; in data set [2] (setting [4]), 0.766 ± 0.038; in data set [2] (setting [5]), 0.655 ± 0.013; in data set [2] (setting [6]), 0.718 ± 0.017; in data set [2] (setting [7]) it was 0.665 ± 0.007. For the same sequence, the protein stability index was determined as 0.645 ± 0.013 in data set [2] (setting [8]) and 0.71 ± 0.011 in data set [2] (setting [9]).

With CTFFCICVFFLL, the protein stability index was determined as 0.392 ± 0.042 in data set [1]; 0.349 ± 0.019 in data set [2] (setting [3]); 0.413 ± 0.025 in data set [2] (setting [4]); 0.339 ± 0.027 in data set [2] (setting [5]); 0.463 ± 0.0064 in data set [2] (setting [6]); 0.267 ± 0.012 in data set [2] (setting [7]). The protein stability index in data set [2] (setting [8]) is 0.281 ± 0.022; in data set [2] (setting [9]), 0.4 ± 0.0063.

Regarding CTLVVGLFVLVV, the protein stability index in data set [1] was 0.362 ± 0.0094; in data set [2] (setting [3]) it was 0.168 ± 0.02; in data set [2] (setting [4]) it was 0.315 ± 0.022; in data set [2] (setting [5]), 0.209 ± 0.034; in data set [2] (setting [6]) it was 0.375 ± 0.024; in data set [2] (setting [7]), 0.168 ± 0.0065. Besides, the protein stability index in data set [2] (setting [8]) is 0.216 ± 0.028; in data set [2] (setting [9]), 0.322 ± 0.0064.

Regarding CVGLYCLFVLLG, the protein stability index in data set [1] stood at 0.248 ± 0.004; in data set [2] (setting [3]) it was 0.289 ± 0.0046; in data set [2] (setting [4]) it was 0.357 ± 0.0088; in data set [2] (setting [5]), 0.273 ± 0.034; in data set [2] (setting [6]) it was 0.449 ± 0.019; in data set [2] (setting [7]), 0.172 ± 0.0049. For the same sequence, the results for the protein stability index in data set [2] (setting [8]) and in data set [2] (setting [9]) were 0.161 ± 0.018 and 0.278 ± 0.0049, respectively.

CVISLVTAVRLF: the protein stability index amounted to 0.4644 ± 0.0021 in data set [1]; 0.514 ± 0.023 in data set [2] (setting [3]); 0.5526 ± 0.0029 in data set [2] (setting [4]); 0.453 ± 0.022 in data set [2] (setting [5]); 0.589 ± 0.019 in data set [2] (setting [6]); 0.405 ± 0.028 in data set [2] (setting [7]). Also, the protein stability index turned out to be 0.426 ± 0.026 in data set [2] (setting [8]) and 0.544 ± 0.018 in data set [2] (setting [9]).

For DDVRFLLWGLCC, the protein stability index stood at 0.324 ± 0.027 in data set [1]; 0.48 ± 0.022 in data set [2] (setting [3]); 0.459 ± 0.018 in data set [2] (setting [4]); 0.398 ± 0.024 in data set [2] (setting [5]); 0.5595 ± 0.0051 in data set [2] (setting [6]); 0.183 ± 0.0027 in data set [2] (setting [7]). Moreover, the protein stability index worked out at 0.218 ± 0.019 in data set [2] (setting [8]) and 0.3644 ± 0.0027 in data set [2] (setting [9]).

For the sequence DQPLWIGVLAYC, the protein stability index in data set [1] is 0.455 ± 0.025; in data set [2] (setting [3]), 0.434 ± 0.04; in data set [2] (setting [4]) it was 0.4712 ± 0.00085; in data set [2] (setting [5]), 0.31 ± 0.04; in data set [2] (setting [6]) it was 0.502 ± 0.011; in data set [2] (setting [7]), 0.272 ± 0.0047. In addition, the protein stability index in data set [2] (setting [8]) was 0.325 ± 0.013; in data set [2] (setting [9]) it was 0.487 ± 0.022.

DRRYIISLIYIL: the protein stability index in data set [1] worked out at 0.113 ± 0.059; in data set [2] (setting [3]), 0.32 ± 0.022; in data set [2] (setting [4]), 0.5045 ± 0.0033; in data set [2] (setting [5]), 0.369 ± 0.023; in data set [2] (setting [6]), 0.576 ± 0.035; in data set [2] (setting [7]), 0.0892 ± 0.014. Further, the protein stability index came to 0.0874 ± 0.015 in data set [2] (setting [8]) and 0.105 ± 0.0088 in data set [2] (setting [9]).
